# Results taken from patent publication US20140199682A1.
# What was measured:
# [1] = molecular target: hemagglutinin H3 A/Perth/16/2009 (influenza A virus H3); test: Biolayer Interferometry (ForteBio Octet), kinetic analysis, apparent affinity
# [2] = molecular target: hemagglutinin of H3N2 Hong Kong/68 (influenza A virus H3N2); test: as above
Substance,Kd [1] [nM],Kd [2] [nM]
C05 CDR1 variant E27d-A (antibody),28,540
C05 CDR1 variant F27b-A (antibody),460,610
C05 CDR1 variant G27c-A (antibody),33,450
C05 CDR1 variant Y31A (antibody),550,640
C05 CDR1 variant Y31F (antibody),6.8,420
C05 CDR1 variant Y31L (antibody),560,1400
C05 CDR1 variant del(FGEST) (antibody),1300,690
